These results are taken from the supplement of paper PMC9112550, “Optimization of the antimicrobial peptide Bac7 by deep mutational scanning” (BMC Biology, 2022).

The test system of this data set is Escherichia coli TOP10. Kind of data set: shrunken log2 fold change of peptide-encoding DNA abundance (4.5 h post-induction vs induction); higher = less antimicrobial activity (less host growth inhibition). Particulars: time post-induction: 4.5 h; library: site-saturation at positions 5, 18, 19, 20.
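Further: peptides expressed intracellularly from a pBAD plasmid library in pooled LB shake-flask culture, induced with 0.3% L-arabinose, DNA abundance read by NGS, three biological replicates, DESeq2 with apeglm shrinkage.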

In the case of RRIRMRPPRLPRPRPRPMMNPRP, the “shrunken log2 fold change” value is -0.0818.
For the sequence RRIRCRPPRLPRPRPRPLHGPRP, the “shrunken log2 fold change” value is -0.089.
The value for RRIRSRPPRLPRPRPRPACQPRP was 0.0147; that for RRIRHRPPRLPRPRPRPGNEPRP was -0.364; that for RRIRRRPPRLPRPRPRPANPPRP was 0.364.
As for RRIRNRPPRLPRPRPRPFYQPRP, the “shrunken log2 fold change” value was -0.8.
For RRIRCRPPRLPRPRPRPTIEPRP, the “shrunken log2 fold change” value was -0.276.
Turning to RRIRSRPPRLPRPRPRPVIDPRP, the “shrunken log2 fold change” value was -0.26.
The value for RRIRKRPPRLPRPRPRPDLRPRP was 0.103; that for RRIRARPPRLPRPRPRPRNVPRP was 0.0957; that for RRIRQRPPRLPRPRPRPKQTPRP was -0.0544.
The value for RRIRTRPPRLPRPRPRPMNCPRP was -0.0645.
The value for RRIRIRPPRLPRPRPRPYVKPRP was -0.881; that for RRIRARPPRLPRPRPRPVNRPRP was 0.277.
On to RRIRLRPPRLPRPRPRPTPTPRP, for which the “shrunken log2 fold change” value was found to be 0.786.
In the case of RRIRFRPPRLPRPRPRPDRWPRP, the “shrunken log2 fold change” value is 0.0556.
Take RRIRARPPRLPRPRPRPACFPRP: the “shrunken log2 fold change” value was determined as 0.736.
On to RRIRNRPPRLPRPRPRPIHAPRP, for which the “shrunken log2 fold change” value was -0.0866.
Take RRIRARPPRLPRPRPRPCIEPRP: the “shrunken log2 fold change” value is 0.105.
The value for RRIRARPPRLPRPRPRPLSKPRP was -0.0286.
The value for RRIRVRPPRLPRPRPRPFALPRP was 0.0564; that for RRIRSRPPRLPRPRPRPDTAPRP was -0.0215; that for RRIRPRPPRLPRPRPRPACYPRP was -0.199.
With RRIRQRPPRLPRPRPRPMQHPRP, the “shrunken log2 fold change” value is -0.165.
The value for RRIRWRPPRLPRPRPRPFTFPRP was -0.326.
As for RRIRARPPRLPRPRPRPHHGPRP, the “shrunken log2 fold change” value was -0.122.
The value for RRIRARPPRLPRPRPRPQNWPRP was 0.315.
The value for RRIRWRPPRLPRPRPRPEKVPRP was 0.115; that for RRIRMRPPRLPRPRPRPSQGPRP was 0.179; that for RRIRIRPPRLPRPRPRPPQDPRP was 0.0725.
The value for RRIRSRPPRLPRPRPRPGDFPRP was 0.0535; that for RRIRARPPRLPRPRPRPRCFPRP was 0.222.
As to RRIRRRPPRLPRPRPRPTCVPRP, the “shrunken log2 fold change” value was 0.455.
Consider RRIRRRPPRLPRPRPRPCTIPRP, for which the “shrunken log2 fold change” value is -0.182.
The value for RRIRVRPPRLPRPRPRPTHRPRP was 0.662; that for RRIRHRPPRLPRPRPRPVDAPRP was 0.131.
For the sequence RRIRSRPPRLPRPRPRPGKHPRP, the “shrunken log2 fold change” value worked out at 0.0205.
Regarding RRIRPRPPRLPRPRPRPEWRPRP, the “shrunken log2 fold change” value was found to be 0.362.
The value for RRIRKRPPRLPRPRPRPQLKPRP was 0.275; that for RRIRERPPRLPRPRPRPPEFPRP was 0.127.
For RRIRRRPPRLPRPRPRPSKEPRP the value was 0.137.
The value for RRIRWRPPRLPRPRPRPPIQPRP was 0.277.
With RRIRERPPRLPRPRPRPFQKPRP, the “shrunken log2 fold change” value is -0.178.
The value for RRIRIRPPRLPRPRPRPERPPRP was 0.285; that for RRIRWRPPRLPRPRPRPQLWPRP was 1.02; that for RRIRSRPPRLPRPRPRPRSPPRP was 0.363.
For the sequence RRIRQRPPRLPRPRPRPWYCPRP, the “shrunken log2 fold change” value is -1.83.
For RRIRMRPPRLPRPRPRPRGGPRP the value was 1.26; for RRIRFRPPRLPRPRPRPASYPRP, -0.218.
For RRIRDRPPRLPRPRPRPFQCPRP the value was 0.00675; for RRIRRRPPRLPRPRPRPRVRPRP, 0.649.
For RRIRVRPPRLPRPRPRPVFNPRP, the “shrunken log2 fold change” value was -0.392.
For RRIRVRPPRLPRPRPRPAFMPRP the value was -0.352; for RRIRQRPPRLPRPRPRPRFTPRP, 0.184.
As for RRIRHRPPRLPRPRPRPRQYPRP, the “shrunken log2 fold change” value was -0.185.
RRIRFRPPRLPRPRPRPWYRPRP: the “shrunken log2 fold change” value is -0.0778.
For RRIRHRPPRLPRPRPRPNSLPRP the value was -0.0817; for RRIRKRPPRLPRPRPRPPLMPRP, 0.396; for RRIRARPPRLPRPRPRPNEWPRP, 0.0144.
The value for RRIRYRPPRLPRPRPRPRELPRP was -0.0942; that for RRIRFRPPRLPRPRPRPDMLPRP was -0.125.
Consider RRIRTRPPRLPRPRPRPSRPPRP, for which the “shrunken log2 fold change” value was found to be 0.202.
For RRIRFRPPRLPRPRPRPVLIPRP the value was -0.17; for RRIRARPPRLPRPRPRPGDKPRP, 0.173; for RRIRQRPPRLPRPRPRPSQWPRP, -0.02.
The value for RRIRTRPPRLPRPRPRPIYRPRP was -0.0278; that for RRIRSRPPRLPRPRPRPSSVPRP was -0.354; that for RRIRVRPPRLPRPRPRPRFLPRP was -0.247.
The value for RRIRERPPRLPRPRPRPTNTPRP was -0.697; that for RRIRTRPPRLPRPRPRPAWRPRP was 0.594.
Take RRIRLRPPRLPRPRPRPMFCPRP: the “shrunken log2 fold change” value was -0.752.
The value for RRIRDRPPRLPRPRPRPLFLPRP was -0.13; that for RRIRDRPPRLPRPRPRPAISPRP was -0.0409; that for RRIRSRPPRLPRPRPRPEVLPRP was -0.0111.
The value for RRIRERPPRLPRPRPRPYDTPRP was -0.00822; that for RRIRWRPPRLPRPRPRPVLLPRP was 0.0146; that for RRIRLRPPRLPRPRPRPEIRPRP was -0.0685.
For RRIRERPPRLPRPRPRPLFNPRP the value was -0.62.
Consider RRIRFRPPRLPRPRPRPQEPPRP, for which the “shrunken log2 fold change” value stood at 0.436.
The value for RRIRFRPPRLPRPRPRPQHFPRP was 0.205; that for RRIRRRPPRLPRPRPRPKSIPRP was -0.0792.
Consider RRIRQRPPRLPRPRPRPQYPPRP, for which the “shrunken log2 fold change” value is -0.199.
For the sequence RRIRVRPPRLPRPRPRPIATPRP, the “shrunken log2 fold change” value stood at 0.141.
The value for RRIRLRPPRLPRPRPRPTKGPRP was 0.226; that for RRIRYRPPRLPRPRPRPCKFPRP was -0.931; that for RRIRPRPPRLPRPRPRPQDKPRP was -0.00457.
For RRIRCRPPRLPRPRPRPRLFPRP the value was 0.437; for RRIRERPPRLPRPRPRPWFGPRP, 0.0197.
For RRIRNRPPRLPRPRPRPRHQPRP the value was -0.038; for RRIRLRPPRLPRPRPRPYSLPRP, -0.0459.
For RRIRQRPPRLPRPRPRPFTSPRP, the “shrunken log2 fold change” value is -0.00281.
RRIRQRPPRLPRPRPRPMPSPRP: the “shrunken log2 fold change” value was -0.162.
The value for RRIRRRPPRLPRPRPRPLRTPRP was 1.41; that for RRIRCRPPRLPRPRPRPCPTPRP was 0.0528; that for RRIRRRPPRLPRPRPRPVPQPRP was 0.28.
For RRIRDRPPRLPRPRPRPMPKPRP the value was -0.0503.
For RRIRNRPPRLPRPRPRPGPSPRP the value was 0.516; for RRIRKRPPRLPRPRPRPMLFPRP, 0.315; for RRIRWRPPRLPRPRPRPDMDPRP, 0.0441.
Turning to RRIRPRPPRLPRPRPRPMHWPRP, the “shrunken log2 fold change” value came out at 0.335.
The value for RRIRYRPPRLPRPRPRPFPTPRP was -0.781; that for RRIRERPPRLPRPRPRPTWLPRP was 0.289.
For RRIRVRPPRLPRPRPRPACHPRP the value was 0.0396; for RRIRVRPPRLPRPRPRPGQLPRP, 0.208; for RRIRLRPPRLPRPRPRPSRCPRP, 0.05.
For RRIRSRPPRLPRPRPRPDQDPRP the value was 0.142.
Consider RRIRPRPPRLPRPRPRPTMGPRP, for which the “shrunken log2 fold change” value is 0.0476.
For RRIRVRPPRLPRPRPRPMLYPRP the value was -0.375.
For RRIRNRPPRLPRPRPRPRGPPRP the value was 0.893.
For RRIRKRPPRLPRPRPRPKNFPRP the value was -0.148; for RRIRGRPPRLPRPRPRPDDHPRP, 0.18.
Regarding RRIRPRPPRLPRPRPRPMRYPRP, the “shrunken log2 fold change” value worked out at 0.0689.
The value for RRIRIRPPRLPRPRPRPSWQPRP was 0.144.
For RRIRPRPPRLPRPRPRPRNIPRP the value was -0.222.
The value for RRIRWRPPRLPRPRPRPHFIPRP was -0.349; that for RRIRMRPPRLPRPRPRPKQRPRP was 1.1; that for RRIRARPPRLPRPRPRPQGGPRP was 0.499.
Turning to RRIRPRPPRLPRPRPRPYMPPRP, the “shrunken log2 fold change” value is -0.854.
The value for RRIRFRPPRLPRPRPRPCPRPRP was 0.0155; that for RRIRTRPPRLPRPRPRPTQWPRP was 0.364.
For the sequence RRIRLRPPRLPRPRPRPTSTPRP, the “shrunken log2 fold change” value is -0.194.
As to RRIRARPPRLPRPRPRPAGWPRP, the “shrunken log2 fold change” value was determined as 1.56.
The value for RRIRKRPPRLPRPRPRPINHPRP was -0.408.
The value for RRIRIRPPRLPRPRPRPTNLPRP was -0.606; that for RRIRVRPPRLPRPRPRPRMTPRP was 0.265.
